According to PMC3210020:
Like-named read-outs stand apart in the source and are kept apart here. Values belong to the molecule of their own block, whether it stands above or below them.

Legend:
integrin αIIbβ3 (human) [1] = molecular target: integrin αIIbβ3 (human) (UniProt P05106); assay: SPR
[2] = molecular target: integrin αIIbβ3 (Homo sapiens) (UniProt P08514); assay: solid-phase binding; settings: cited from earlier work
[3] = molecular target: integrin αIIbβ3 (Homo sapiens) (UniProt P08514); settings: cited from earlier work
[4] = molecular target: integrin αIIbβ3 (Homo sapiens) (UniProt P08514); settings: cited from earlier work; remark: listed apart in the source
[5] = molecular target: integrin αIIbβ3 (Homo sapiens) (UniProt P08514); assay: SPR; settings: cited from earlier work
integrin αIIbβ3 (human) [6] = molecular target: integrin αIIbβ3 (human) (UniProt P05106); assay: SPR; remark: listed apart in the source
integrin αIIbβ3 (human) [7] = molecular target: integrin αIIbβ3 (human) (UniProt P05106); assay: ELISA
integrin αIIbβ3 (human) [8] = molecular target: integrin αIIbβ3 (human) (UniProt P05106); assay: SPR; remark: listed apart in the source

Molecule: fibrinogen (from UniProt P02671)
- Kd [2]: 60 nM
- Kd [3]: 165 nM
- Kd [4]: 50 nM
- Kd [5]: 3 nM

Molecule: eptifibatide (peptide)
- Ki (integrin αIIbβ3 (human) [1]): 0.4 nM

Molecule: biotinylated fibrinogen (from UniProt P02671-2 36-644; P02675 45-491; P02679-2 27-437) (natural protein)
- midpoint of the saturable binding profile (integrin αIIbβ3 (human) [7]): 2 nM

B1: synthetic γ-module peptide … (peptide)
peptide: HHLGGAKQAGDV
- percent reduction of the fibrinogen (100 nM) binding signal at 3 µM peptide (integrin αIIbβ3 (human) [8]): < 10%

More lines, now with the values ahead:

- kon (integrin αIIbβ3 (human) [1]): 21900 M⁻¹ s⁻¹
Molecule: normal recombinant fibrinogen (from UniProt P02671-2 36-644; P02675 45-491; P02679-2 27-437) (natural protein)

- Kd (integrin αIIbβ3 (human) [1]): 3.2 nM
- dH (integrin αIIbβ3 (human) [1]): -49 kJ/mol
- fold slower off rate at 15 °C than at 37 °C (integrin αIIbβ3 (human) [1]): 7 fold
- fold slower on rate at 15 °C than at 37 °C (integrin αIIbβ3 (human) [1]): 2 fold
- fold tighter binding at 15 °C than at 37 °C (integrin αIIbβ3 (human) [1]): 4 fold
- koff (integrin αIIbβ3 (human) [1]): 7.01e-05 s⁻¹
- kon (integrin αIIbβ3 (human) [1]): 21900 M⁻¹ s⁻¹
- Kd (integrin αIIbβ3 (human) [6]): 4.42 nM
- koff (integrin αIIbβ3 (human) [6]): 8.41e-05 s⁻¹
- kon (integrin αIIbβ3 (human) [6]): 19000 M⁻¹ s⁻¹
Molecule: human fibrinogen (plasma), (AαBβγ)2 (from UniProt P02671-2 36-644; P02675 45-491; P02679-2 27-437) (natural protein)
